The chains are these.
B1: INTS3 (parent)
chain: EEITEESLEESVGKPLYLIFRNLC
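Note: lentivirally expressed fusions sorted by FACS into six bins by GFP to DsRed ratio, PSI derived from sequencing read proportions per bin multiplied by bin number.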

In the series the parent is B1. Description: protein stability index of a GFP-peptide fusion (GPS, HEK-293T) (PSI 1-6); higher = more stable. Conditions: c terminus: a fixed tail appended.
Regarding EEILEESLEESVGKPLYLIFRNLC [T4L], the protein stability index is 2.28.

As to EEIGEESLEESVGKPLYLIFRNLC [T4G], the protein stability index turned out to be 2.66. Under EEICEESLEESVGKPLYLIFRNLC [T4C] stands 2.46; under EEIMEESLEESVGKPLYLIFRNLC [T4M], 2.23; under EEISEESLEESVGKPLYLIFRNLC [T4S], 2.4. With EEIIEESLEESVGKPLYLIFRNLC [T4I], the protein stability index was found to be 1.98. For EEIDEESLEESVGKPLYLIFRNLC [T4D], the protein stability index came to 3.38.

On to EEINEESLEESVGKPLYLIFRNLC [T4N], for which the protein stability index was 2.83. For the variant EEIYEESLEESVGKPLYLIFRNLC [T4Y], the protein stability index was found to be 2.29. For the variant EEIKEESLEESVGKPLYLIFRNLC [T4K], the protein stability index is 2.46. Take EEIPEESLEESVGKPLYLIFRNLC [T4P]: the protein stability index is 2.77. For EEIWEESLEESVGKPLYLIFRNLC [T4W], the protein stability index was 1.68. Under EEIEEESLEESVGKPLYLIFRNLC [T4E] stands 2.41. For the variant EEIHEESLEESVGKPLYLIFRNLC [T4H], the protein stability index came to 2.99. On to EEIFEESLEESVGKPLYLIFRNLC [T4F], for which the protein stability index was 2.01.

On to EEIQEESLEESVGKPLYLIFRNLC [T4Q], for which the protein stability index is 2.71. Regarding EEIAEESLEESVGKPLYLIFRNLC [T4A], the protein stability index was 2.52. EEIVEESLEESVGKPLYLIFRNLC [T4V]: the protein stability index was determined as 2.3.

As to EEIREESLEESVGKPLYLIFRNLC [T4R], the protein stability index was 2.3.

Turning to ENITEESLEESVGKPLYLIFRNLC [E2N], the protein stability index is 2.9. With ERITEESLEESVGKPLYLIFRNLC [E2R] the figure was 2.93; with EQITEESLEESVGKPLYLIFRNLC [E2Q], 2.52; with EDITEESLEESVGKPLYLIFRNLC [E2D], 2.86. Consider ESITEESLEESVGKPLYLIFRNLC [E2S], for which the protein stability index was found to be 2.58. On to EFITEESLEESVGKPLYLIFRNLC [E2F], for which the protein stability index was 2.38.

Regarding EYITEESLEESVGKPLYLIFRNLC [E2Y], the protein stability index was 1.69.

On to EMITEESLEESVGKPLYLIFRNLC [E2M], for which the protein stability index was determined as 2.1. As for EPITEESLEESVGKPLYLIFRNLC [E2P], the protein stability index came to 2.51. As for EGITEESLEESVGKPLYLIFRNLC [E2G], the protein stability index amounted to 2.56.

As for ECITEESLEESVGKPLYLIFRNLC [E2C], the protein stability index came out at 2.48.

As for EVITEESLEESVGKPLYLIFRNLC [E2V], the protein stability index worked out at 2.35. Under ELITEESLEESVGKPLYLIFRNLC [E2L] stands 2.11; under EHITEESLEESVGKPLYLIFRNLC [E2H], 2.32; under EWITEESLEESVGKPLYLIFRNLC [E2W], 1.74. Under EIITEESLEESVGKPLYLIFRNLC [E2I] stands 1.91; under EKITEESLEESVGKPLYLIFRNLC [E2K], 2.02; under ETITEESLEESVGKPLYLIFRNLC [E2T], 2.68. Under EESTEESLEESVGKPLYLIFRNLC [I3S] stands 2.84; under EEYTEESLEESVGKPLYLIFRNLC [I3Y], 2.1; under EEATEESLEESVGKPLYLIFRNLC [I3A], 3.14. On to EELTEESLEESVGKPLYLIFRNLC [I3L], for which the protein stability index turned out to be 3. For the variant EEGTEESLEESVGKPLYLIFRNLC [I3G], the protein stability index turned out to be 3.13. Under EETTEESLEESVGKPLYLIFRNLC [I3T] stands 2.9; under EEQTEESLEESVGKPLYLIFRNLC [I3Q], 3.36; under EEPTEESLEESVGKPLYLIFRNLC [I3P], 3.2. As for EEFTEESLEESVGKPLYLIFRNLC [I3F], the protein stability index worked out at 2.79. Turning to EEHTEESLEESVGKPLYLIFRNLC [I3H], the protein stability index stood at 3.67. Consider EENTEESLEESVGKPLYLIFRNLC [I3N], for which the protein stability index stood at 3.25. Turning to EEETEESLEESVGKPLYLIFRNLC [I3E], the protein stability index stood at 3.82. Take EECTEESLEESVGKPLYLIFRNLC [I3C]: the protein stability index was 2.65. As to EEMTEESLEESVGKPLYLIFRNLC [I3M], the protein stability index came out at 3.29. With EEDTEESLEESVGKPLYLIFRNLC [I3D] the figure was 3.3; with EERTEESLEESVGKPLYLIFRNLC [I3R], 2.94.

For EEWTEESLEESVGKPLYLIFRNLC [I3W], the protein stability index was 2.18.

For EEVTEESLEESVGKPLYLIFRNLC [I3V], the protein stability index turned out to be 3.16. Take EEKTEESLEESVGKPLYLIFRNLC [I3K]: the protein stability index worked out at 3.04. Consider EEITFESLEESVGKPLYLIFRNLC [E5F], for which the protein stability index is 1.61. Consider EEITPESLEESVGKPLYLIFRNLC [E5P], for which the protein stability index stood at 1.98.

In the case of EEITRESLEESVGKPLYLIFRNLC [E5R], the protein stability index is 1.96. Regarding EEITVESLEESVGKPLYLIFRNLC [E5V], the protein stability index amounted to 1.72. Under EEITLESLEESVGKPLYLIFRNLC [E5L] stands 2.1; under EEITHESLEESVGKPLYLIFRNLC [E5H], 2.62. On to EEITNESLEESVGKPLYLIFRNLC [E5N], for which the protein stability index turned out to be 2.64. In the case of EEITWESLEESVGKPLYLIFRNLC [E5W], the protein stability index turned out to be 1.85. Turning to EEITMESLEESVGKPLYLIFRNLC [E5M], the protein stability index came to 1.89. As for EEITCESLEESVGKPLYLIFRNLC [E5C], the protein stability index is 2.14.

Regarding EEITQESLEESVGKPLYLIFRNLC [E5Q], the protein stability index came to 2.37. For the variant EEITKESLEESVGKPLYLIFRNLC [E5K], the protein stability index was determined as 2.31. As to EEITDESLEESVGKPLYLIFRNLC [E5D], the protein stability index came out at 2.72. On to EEITIESLEESVGKPLYLIFRNLC [E5I], for which the protein stability index turned out to be 1.56. As for EEITYESLEESVGKPLYLIFRNLC [E5Y], the protein stability index was 2.03. Turning to EEITSESLEESVGKPLYLIFRNLC [E5S], the protein stability index is 2.5. Under EEITAESLEESVGKPLYLIFRNLC [E5A] stands 2.4; under EEITGESLEESVGKPLYLIFRNLC [E5G], 2.09; under EEITTESLEESVGKPLYLIFRNLC [E5T], 2.37. Regarding EEITEISLEESVGKPLYLIFRNLC [E6I], the protein stability index is 2.06.

With EEITEHSLEESVGKPLYLIFRNLC [E6H], the protein stability index stood at 2.44. With EEITESSLEESVGKPLYLIFRNLC [E6S], the protein stability index was found to be 2.27. Consider EEITEVSLEESVGKPLYLIFRNLC [E6V], for which the protein stability index was determined as 1.76. Under EEITEDSLEESVGKPLYLIFRNLC [E6D] stands 2.7. Take EEITEGSLEESVGKPLYLIFRNLC [E6G]: the protein stability index is 2.38.

Turning to EEITEQSLEESVGKPLYLIFRNLC [E6Q], the protein stability index was found to be 2.56. As to EEITEPSLEESVGKPLYLIFRNLC [E6P], the protein stability index is 2.49. For the variant EEITEMSLEESVGKPLYLIFRNLC [E6M], the protein stability index was found to be 2.

As for EEITEASLEESVGKPLYLIFRNLC [E6A], the protein stability index was 2.01. Turning to EEITEWSLEESVGKPLYLIFRNLC [E6W], the protein stability index came out at 1.96.

In the case of EEITEKSLEESVGKPLYLIFRNLC [E6K], the protein stability index turned out to be 1.8. Turning to EEITENSLEESVGKPLYLIFRNLC [E6N], the protein stability index came out at 2.29. With EEITETSLEESVGKPLYLIFRNLC [E6T] the figure was 2.02; with EEITEYSLEESVGKPLYLIFRNLC [E6Y], 2.39; with EEITERSLEESVGKPLYLIFRNLC [E6R], 1.99.

For EEITELSLEESVGKPLYLIFRNLC [E6L], the protein stability index was 1.69. As to EEITECSLEESVGKPLYLIFRNLC [E6C], the protein stability index worked out at 1.83.

With EEITEFSLEESVGKPLYLIFRNLC [E6F], the protein stability index came to 2.23.

The values are drawn from the supplement of paper PMC10567573.
